Consider one substance from US20140127724A1.

Experiment [1] has as its target mouse fragile X mental retardation protein (FMRP) (mouse) (UniProt P35922). Nature of the experiment: Luminex capture immunoassay, 5 ug mouse brain extract.
Experiment [2] shares this target. Nature of the experiment: Luminex capture immunoassay, 10 ug mouse brain extract.
The target is the same in experiment [3]. Nature of the experiment: Luminex capture immunoassay, 20 ug mouse brain extract.
For experiment [4] the target is unchanged. Nature of the experiment: Luminex capture immunoassay, 40 ug mouse brain extract.
Experiment [5] shares this target. Nature of the experiment: Luminex capture immunoassay, 80 ug mouse brain extract.
The target is the same in experiment [6]. Nature of the experiment: Luminex capture immunoassay, 2.5 ug mouse brain extract.
The target is the same in experiment [7]. Nature of the experiment: Luminex capture immunoassay, 1.25 ug mouse brain extract.
The target of experiment [8] is human fragile X mental retardation protein (FMRP) (human) (UniProt Q06787). Nature of the experiment: Luminex capture immunoassay, 5 ug human lymphoblastoid control extract.
Experiment [9] has the same target. Nature of the experiment: Luminex capture immunoassay, 10 ug human lymphoblastoid control extract.
Experiment [10] shares this target. Nature of the experiment: Luminex capture immunoassay, 20 ug human lymphoblastoid control extract.
The target is the same in experiment [11]. Nature of the experiment: Luminex capture immunoassay, 40 ug human lymphoblastoid control extract.
The target is the same in experiment [12]. Nature of the experiment: Luminex capture immunoassay, 80 ug human lymphoblastoid control extract.
Experiment [13] shares this target. Nature of the experiment: Luminex capture immunoassay, 2.5 ug human lymphoblastoid control extract.
For experiment [14] the target is unchanged. Nature of the experiment: Luminex capture immunoassay, 1.25 ug human lymphoblastoid control extract.

Several values for one entry are separate records, joined by “and”; a condition that tells them apart may be missing. Equal values may be shown once.

Regarding anti-PrP mAb 3F4 (antibody), the phycoerythrin fluorescence (MFI) in experiment [1] was 7 MFI and 8 MFI; in experiment [2], 11 MFI and 10 MFI; in experiment [3], 17.5 MFI and 18 MFI; in experiment [4], 36 MFI and 39.5 MFI; in experiment [5], 51 MFI and 49 MFI; in experiment [6] it was 7 MFI and 6 MFI. Further, the phycoerythrin fluorescence (MFI) was 7 MFI and 5 MFI in experiment [7]; 5 MFI in [8]; 5 MFI and 4 MFI in experiment [9]; 5 MFI and 6 MFI in experiment [10]; 5 MFI and 6 MFI in [11]; 6 MFI in experiment [12]. Besides, the phycoerythrin fluorescence (MFI) in [13] stood at 6 MFI; in experiment [14] it was 5 MFI.
